In PMC7363144, “Cryo-electron microscopy structure and potential enzymatic function of human six-transmembrane epithelial antigen of the prostate 1 (STEAP1)” (The Journal of Biological Chemistry, 2020):

What follows are binders tested against T1, six-transmembrane epithelial antigen of the prostate 1 (STEAP1), full-length human, C-terminal Strep-tag (Homo sapiens) (assay: SEC; 25 µl STEAP1 (0.28 mg/ml) mixed with a ~2-fold molar excess of Fab variant (35 µl at 0.5 mg/ml), several hours, Superdex 200 increase 3.2/300, 20 mM Tris pH 7.8, 200 mM NaCl, 0.08% digitonin; heme absorbance at 412 nm and tryptophan fluorescence). Conditions: both partners purified.
T1 construct: human STEAP1, UniProtKB Q9UHE8, full length; codon-optimized DNA from GeneArt; Homotrimer in the cryo-EM structure; in digitonin micelles; The PDB model holds residues 67-312 only; source: HEK293 GnTI- suspension cells, purified in digitonin (Strep-Tactin resin, SEC)
T1 sequence (Q9UHE8 2-339): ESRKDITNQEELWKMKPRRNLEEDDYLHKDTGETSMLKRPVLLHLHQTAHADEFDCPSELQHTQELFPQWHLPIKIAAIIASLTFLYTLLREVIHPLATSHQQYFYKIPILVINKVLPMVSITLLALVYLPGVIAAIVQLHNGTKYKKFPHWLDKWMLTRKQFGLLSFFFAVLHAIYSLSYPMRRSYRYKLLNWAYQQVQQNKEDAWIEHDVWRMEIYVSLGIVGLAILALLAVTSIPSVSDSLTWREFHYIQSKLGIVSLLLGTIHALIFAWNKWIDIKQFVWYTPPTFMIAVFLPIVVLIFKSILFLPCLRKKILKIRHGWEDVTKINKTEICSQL

Binder	binding result
Fab120.545 mutant R32LE (Fab, V domains shown, as the heavy chain of m2; variable region in PDB 6Y9B; as the light chain of m2 with R32E; variable region of the parent in PDB 6Y9B; source: gift from Genmab BV, produced at the authors' request) VH: DVQVQESGPGLVKPSQSLSLTCTVTGYSITSDYAWNWIRQFPGNKLEWMGYISNSGSTSYNPSLKSRISITRDTSKNQFFLQLISVTTEDTATYYCARERNYDYDDYYYAMDYWGQGTTLTVSA VL: DIVMSQSPSSLAVSVGEKVTMSCKSSQSLLYESNQKNYLAWYQQKPGQSPKLLIYWASTRESGVPDRFTGSGSGTDFTLTISSVKAEDLAVYYCQQYYNYPRTFGGGTKLEIK	no binding
Fab120.545 mutant N99LD (Fab, V domains shown, as the heavy chain of m2; variable region in PDB 6Y9B; as the light chain of m2 with N99D; variable region of the parent in PDB 6Y9B; source: gift from Genmab BV, produced at the authors' request) VH: DVQVQESGPGLVKPSQSLSLTCTVTGYSITSDYAWNWIRQFPGNKLEWMGYISNSGSTSYNPSLKSRISITRDTSKNQFFLQLISVTTEDTATYYCARERNYDYDDYYYAMDYWGQGTTLTVSA VL: DIVMSQSPSSLAVSVGEKVTMSCKSSQSLLYRSNQKNYLAWYQQKPGQSPKLLIYWASTRESGVPDRFTGSGSGTDFTLTISSVKAEDLAVYYCQQYYDYPRTFGGGTKLEIK	no binding
Fab120.545 mutant D103HN,D105HN,D106HN (Fab, V domains shown, as the heavy chain of m2 with D103N, D105N, D106N; variable region of the parent in PDB 6Y9B; as the light chain of m2; variable region in PDB 6Y9B; also called Fab-NNN; source: gift from Genmab BV, produced at the authors' request) VH: DVQVQESGPGLVKPSQSLSLTCTVTGYSITSDYAWNWIRQFPGNKLEWMGYISNSGSTSYNPSLKSRISITRDTSKNQFFLQLISVTTEDTATYYCARERNYNYNNYYYAMDYWGQGTTLTVSA VL: DIVMSQSPSSLAVSVGEKVTMSCKSSQSLLYRSNQKNYLAWYQQKPGQSPKLLIYWASTRESGVPDRFTGSGSGTDFTLTISSVKAEDLAVYYCQQYYNYPRTFGGGTKLEIK	no binding
Fab120.545 mutant D103HA,D105HA,D106HA (Fab, V domains shown, as the heavy chain of m2 with D103A, D105A, D106A; variable region of the parent in PDB 6Y9B; as the light chain of m2; variable region in PDB 6Y9B; also called Fab-AAA; source: gift from Genmab BV, produced at the authors' request) VH: DVQVQESGPGLVKPSQSLSLTCTVTGYSITSDYAWNWIRQFPGNKLEWMGYISNSGSTSYNPSLKSRISITRDTSKNQFFLQLISVTTEDTATYYCARERNYAYAAYYYAMDYWGQGTTLTVSA VL: DIVMSQSPSSLAVSVGEKVTMSCKSSQSLLYRSNQKNYLAWYQQKPGQSPKLLIYWASTRESGVPDRFTGSGSGTDFTLTISSVKAEDLAVYYCQQYYNYPRTFGGGTKLEIK	no binding
